B1: Smad2 WT: bacterially expressed full-length Smad2 wild-type (protein)
chain: MSSILPFTPPVVKRLLGWKKSAGGSGGAGGGEQNGQEEKWCEKAVKSLVKKLKKTGRLDELEKAITTQNCNTKCVTIPSTCSEIWGLSTANTVDQWDTTGLYSFSEQTRSLDGRLQVSHRKGLPHVIYCRLWRWPDLHSHHELKAIENCEYAFNLKKDEVCVNPYHYQRVETPVLPPVLVPRHTEILTELPPLDDYTHSIPENTNFPAGIEPQSNYIPETPPPGYISEDGETSDQQLNQSMDTGSPAELSPTTLSPVNHSLDLQPVTYSEPAFWCSIAYYELNQRVGETFHASQPSLTVDGFTDPSNSERFCLGLLSNVNRNATVEMTRRHIGRGVRLYYIGGEVFAECLSDSAIFVQSPNCNQRYGWHPATVCKIPPGCNLKIFNNQEFAALLAQSVNQGFEAVYQLTRMCTIRMSFVKGWGAEYRRQTVTSTPCWIELHLNGPLQWLDKVLTQMGSPSVRCSSMS
modifications: left off: His6, N-terminal, state not stated
notes: bacterially expressed full-length Smad2 wild-type
B2: EGFP-Smad2 WT: mouse EGFP-Smad2 wild type transfected into HeLa cells (protein, UniProt Q62432 2-467, looked up)
Mothers against …: SSILPFTPPVVKRLLGWKKSAGGSGGAGGGEQNGQEEKWCEKAVKSLVKKLKKTGRLDELEKAITTQNCNTKCVTIPSTCSEIWGLSTANTVDQWDTTGLYSFSEQTRSLDGRLQVSHRKGLPHVIYCRLWRWPDLHSHHELKAIENCEYAFNLKKDEVCVNPYHYQRVETPVLPPVLVPRHTEILTELPPLDDYTHSIPENTNFPAGIEPQSNYIPETPPPGYISEDGETSDQQLNQSMDTGSPAELSPTTLSPVNHSLDLQPVTYSEPAFWCSIAYYELNQRVGETFHASQPSLTVDGFTDPSNSERFCLGLLSNVNRNATVEMTRRHIGRGVRLYYIGGEVFAECLSDSAIFVQSPNCNQRYGWHPATVCKIPPGCNLKIFNNQEFAALLAQSVNQGFEAVYQLTRMCTIRMSFVKGWGAEYRRQTVTSTPCWIELHLNGPLQWLDKVLTQMGSPSVRCSSMS
modifications: EGFP fusion
notes: mouse EGFP-Smad2 wild type transfected into HeLa cells

Assays:
[1] = SPR membrane binding to POPC/POPS/PI(3)P vesicles; details: POPC/POPS/PI(3)P (77:20:3)
Text: (§1) It has been generally thought that Smad2 and Smad3 are targeted to the activated TGF-β signaling complex by direct interaction with TβRI ([1], [2]) or via SARA ([7]). However, it has been shown that many cytosolic proteins that are targeted to membrane proteins or membrane-anchored signaling complexes have affinity for membrane lipids ([14]), phosphoinositides (PtdInsPs) in particular, and that their membrane recruitment is mediated by coincident lipid–protein and protein–protein interactions ([15], [16]). […] We thus measured the binding of bacterially expressed Smad2 to large unilamellar vesicles (LUVs) containing various lipids by surface plasmon resonance (SPR) analysis ([19], [20]). Lipid selectivity determined by SPR analysis is typically reported as the relative resonance unit (RU) values for different lipids at a given protein concentration ([21], [22]). […] We thus estimated RUmax for different lipid species by employing the highest protein concentration experimentally feasible (e.g., 1 μM) and determined RU/RUmax for different lipids at the protein concentration that allows robust comparison (e.g., 100 nM). Once the lipid selectivity has been determined by this semiquantitative approach, we then rigorously determined and compared Kd values for selected lipids for more accurate quantitative determination of lipid selectivity. […]

SPR PtdInsP selectivity = format: binding; details: RU/RUmax, 100 nM protein
Text: as §1

HeLa cells = experiment: Confocal imaging of Smad2 localization; format: cell-based
Procedure: Supplemental Fig. S1. Confocal images of endogenous Smad2 and exogenously expressed EGFP-Smad2 in HeLa cells before (A) and 10 min after (B) TGF-β stimulation.
Endogenous Smad2 images were obtained by immunostaining using the Smad2-specific antibody. 10 ng/ml TGF-β was used for stimulation. Scale bars indicate 10 μm.
Supplemental Fig. S2. Suppression of endogenous Smad2 expression in HeLa cells by siRNA.
Western blot analysis showing that expression of endogenous Smad2 in HeLa cells was successfully suppressed by siRNA. 30 nM siRNA-3 was routinely used for knockdown experiments. For re-introduction of mouse Smad2 to these cells, see Fig. 5A. Glyceraldehyde 3-phosphate dehydrogenase (GAPDH) was used as a gel loading control. […]

Molecule	RUmax ([1]; 1 μM Smad2)	Kd ([1]; SPR, L1 chip, 23 °C, 20 mM Tris, pH 7.4, 0.16 M NaCl, average ±S.D., n = 3, read-out: Kd for lipid binding, PC/PS/PI(3)P) [nM]	PtdInsP selectivity (SPR PtdInsP selectivity)	localization in unstimulated cells (HeLa cells)
B1	400 ± 20	210 ± 34	significant degree of selectivity for POPC/POPS/PI(4,5)P2 (77:20:3) over other PtdInsP-containing vesicles	
B2				mostly distributed in the cytoplasm with little prelocalization to the PM

Source: paper PMC8567202, “Phosphoinositide-binding activity of Smad2 is essential for its function in TGF-β signaling” (The Journal of Biological Chemistry, 2021)
